According to paper PMC3260182, “Stabilisation of the Fc Fragment of Human IgG1 by Engineered Intradomain Disulfide Bonds” (PLoS ONE, 2012):

Biological target: the molecule itself
Assay: SEC; size-exclusion HPLC, TSK G3000 SWXL column, PBS with 200 mM NaCl, 1 ml/min, 50 ug protein at about 1 mg/ml; native conditions; molecular weight standards

B1: Fc fragment of human IgG1 with the CysP2 and CysP4 disulfide bonds combined (domain or fragment)
chain: EFTCPPCPAPELLGGPSVFLFPPKPKDTLMISRTPEVTCVVVDVSHEDPEVKFNWYVDGVEVHNAKTKPREEQYNSTYRVVSVLTVLHQDWLNGKEYKCKVSNKALPAPIEKTISKAKGQCREPQVYTLPPSRDELTKNQVSLTCLVKGFYPCDIAVEWESNGQPENNYKTTPCVLDSDGSFFLYSKLTVDKSRWQQGNVFSCSVMHECLHNHYTQKSLSLSPGK
modifications: N-linked glycosylation at residue Asn297; engineered intradomain disulfide bonds between Cys343 and Cys431 and between Cys375 and Cys396
notes: 2 extra amino acid residues at the N-terminal site due to the EcoRI site used for cloning; the substitutions are still to be applied; Fc fragment of the human IgG1 heavy chain constant region in which the CysP2 and CysP4 mutations are combined; the first letter T is position 225. numbers count on: Kabat EU numbering; Primers are in File S1; also called CysP24; FcCysP24; source: Pichia pastoris …
- stoichiometry N: 2
